Paper PMC12081870 (Communications Biology, 2025)

Assay: 15N NMR relaxation (T1, T2, NOE) of Sla1 SH3#1&2
Assay type: physicochemical, Saccharomyces cerevisiae
Set-up: Time Constant (T2) / T1 / T2: unit not given here
Settings: fit A exp(-Bx), 11 peaks
Excerpt: Fig. 2 A structural analysis of Sla1 SH3 domains 1 and 2. A The predicted interface between the first two SH3 domains of Sla1 as modelled using Alphafold. SH3#1 is shown in light green and SH3#2 is shown in cyan. Residues predicted to form hydrogen bonds using the Pymol search function are shown as sticks and labelled with their respective residue numbers. Dashed black lines indicate interactions. The red line in the structure indicates residues 67–70 in the hinge between the SH3 domains; the magenta loop indicates residues 52–54. B Assignment of the ^1H ^15N HSQC spectrum of Sla1 SH3 domains 1 and 2. C^15N relaxation data for Sla1 SH3#1&2. The linker between domains is approximately residues 67–70 (shown with red line under the trace and in A), and the mobile region 52-54 is part of a loop (shown with magenta line below the trace and in A). The correlation time of 8.5 ns (derived from the trimmed ^15N T1/T2 ratio), matches that calculated for a rigid two-domain structure rather than two independent domains (8.8 and 4.5 ns, respectively).
To investigate further, we purified ^15N, ^13C labelled Sla1 SH3#1&2 and analysed using NMR. A full assignment was obtained (Fig. 2B) which confirmed the Alphafold structure. An important aspect when considering the function of tandem domains is the level of rigidity or flexibility between the domains. […] NMR was used to determine relaxation parameters (^15N R1, R2 and NOE) of ^15N-labelled SH3#1-2 (Fig. 2B). […] The structural unity of the two-domain structure explains why attempts to study SH3#2 alone were unsuccessful.
Experiments were carried out on Bruker DRX-600 and DRX-800 spectrometers fitted with cryoprobes. SH3 domains 1 and 2 were assigned using a standard set of HNCA/HN(CO)CA, HNCO/HN(CA)CO and CBCAHN/CBCA(CO)HN 3D spectra. The assignment has been deposited at BioMagResBank, with code 52650. SH3 domain-3 was assigned by comparison to data provided by Prof Ishwar Radhakrishnan (Northwestern University) for the same domain although with different residues at both ends. Titrations were conducted with three peptides (GenScript Biotech, UK) comprising the three PP motifs (Fig. 3A): p1 […] (residues 318–339); p2 […] (residues 330–361); and p3 […] (residues 375–397). Peptide solutions were prepared as concentrated stock solutions in the same buffer at the same pH and added stepwise to protein solutions. Shift changes were analysed by picking peaks in Felix (Felix NMR Inc, San Diego, CA), which were downloaded to text files and for determining Kd were analysed using Levenberg-Marquardt least squares fitting to the standard quadratic equation[63]. Analysis of the ^15N relaxation data was carried using CCPN Analysis[64].

B1: Sla1 SH3#1-2: SH3#1-2 (aa 5-131), tandem domains; sequence in b253 (protein)
chain: LGIYRAVYAYEPQTPEELAIQEDDLLYLLQKSDIDDWWTVKKRVIGSDSEEPVGLVPSTYIEEAPVLKKVRAIYDYEQVQNADEELTFHENDVFDVFDDKDADWLLVKSTVSNEFGFIPGNYVEPEN
modifications: 15N-labelled (NMR only); left off: GST, end not stated, cleaved
Time Constant (T2) (residue 39, 39AspH/39AspN): 104.622 | Time Constant (T2) (residue 40, 40AspH/40AspN): 92.3559 | Time Constant (T2) (residue 41, 41TrpH/41TrpN): 105.38 | Time Constant (T2) (residue 42, 42TrpH/42TrpN): 87.941 | Time Constant (T2) (residue 43, 43ThrH/43ThrN): 96.7782 | Time Constant (T2) (residue 44, 44ValH/44ValN): 79.239 | Time Constant (T2) (residue 45, 45LysH/45LysN): 89.2928 | Time Constant (T2) (residue 46, 46LysH/46LysN): 79.9381 | Time Constant (T2) (residue 47, 47ArgH/47ArgN): 96.0563 | Time Constant (T2) (residue 48, 48ValH/48ValN): 80.6125 | Time Constant (T2) (residue 49, 49IleH/49IleN): 93.7827 | Time Constant (T2) (residue 50, 50GlyH/50GlyN): 115.88 | Time Constant (T2) (residue 51, 51SerH/51SerN): 86.3946 | Time Constant (T2) (residue 52, 52AspH/52AspN): 168.141 | Time Constant (T2) (residue 53, 53SerH/53SerN): 144.016 | Time Constant (T2) (residue 54, 54GluH/54GluN): 154.977 | Time Constant (T2) (residue 55, 55GluH/55GluN): 101.598 | Time Constant (T2) (residue 57, 57ValH/57ValN): 100.05 | Time Constant (T2) (residue 58, 58GlyH/58GlyN): 89.0014 | Time Constant (T2) (residue 59, 59LeuH/59LeuN): 85.278 | Time Constant (T2) (residue 60, 60ValH/60ValN): 98.7206 | Time Constant (T2) (residue 62, 62SerH/62SerN): 97.5945 | Time Constant (T2) (residue 63, 63ThrH/63ThrN): 81.7496 | Time Constant (T2) (residue 64, 64TyrH/64TyrN): 104.147 | Time Constant (T2) (residue 65, 65IleH/65IleN): 90.7515 | Time Constant (T2) (residue 66, 66GluH/66GluN): 88.572 | Time Constant (T2) (residue 67, 67GluH/67GluN): 102.479 | Time Constant (T2) (residue 68, 68AlaH/68AlaN): 84.1741 | Time Constant (T2) (residue 70, 70ValH/70ValN): 100.257 | Time Constant (T2) (residue 71, 71LeuH/71LeuN): 80.9555 | Time Constant (T2) (residue 72, 72LysH/72LysN): 97.8301 | Time Constant (T2) (residue 73, 73LysH/73LysN): 97.0107 | Time Constant (T2) (residue 74, 74ValH/74ValN): 95.1713 | Time Constant (T2) (residue 75, 75ArgH/75ArgN): 95.2306 | Time Constant (T2) (residue 76, 76AlaH/76AlaN): 79.2788 | Time Constant (T2) (residue 77, 77IleH/77IleN): 85.3516 | Time Constant (T2) (residue 78, 78TyrH/78TyrN): 77.7575 | Time Constant (T2) (residue 79, 79AspH/79AspN): 86.8514 | Time Constant (T2) (residue 80, 80TyrH/80TyrN): 102.25 | Time Constant (T2) (residue 81, 81GluH/81GluN): 91.1679 | Time Constant (T2) (residue 82, 82GlnH/82GlnN): 103.776 | Time Constant (T2) (residue 83, 83ValH/83ValN): 96.58 | Time Constant (T2) (residue 84, 84GlnH/84GlnN): 115.172 | Time Constant (T2) (residue 85, 85AsnH/85AsnN): 109.146 | Time Constant (T2) (residue 86, 86AlaH/86AlaN): 101.454 | Time Constant (T2) (residue 87, 87AspH/87AspN): 93.3182 | Time Constant (T2) (residue 88, 88GluH/88GluN): 94.5093 | Time Constant (T2) (residue 89, 89GluH/89GluN): 99.1662 | Time Constant (T2) (residue 90, 90LeuH/90LeuN): 96.3149 | Time Constant (T2) (residue 91, 91ThrH/91ThrN): 78.2582 | Time Constant (T2) (residue 92, 92PheH/92PheN): 85.0538 | Time Constant (T2) (residue 93, 93HisH/93HisN): 82.1244 | Time Constant (T2) (residue 94, 94GluH/94GluN): 97.249 | Time Constant (T2) (residue 95, 95AsnH/95AsnN): 98.0824 | Time Constant (T2) (residue 96, 96AspH/96AspN): 93.6871 | Time Constant (T2) (residue 97, 97ValH/97ValN): 100.422 | Time Constant (T2) (residue 98, 98PheH/98PheN): 79.4419 | Time Constant (T2) (residue 99, 99AspH/99AspN): 97.6801 | Time Constant (T2) (residue 100, 100ValH/100ValN): 97.751 | Time Constant (T2) (residue 101, 101PheH/101PheN): 95.7132 | Time Constant (T2) (residue 102, 102AspH/102AspN): 87.4197 | Time Constant (T2) (residue 103, 103AspH/103AspN): 77.1058 | Time Constant (T2) (residue 104, 104LysH/104LysN): 88.8779 | Time Constant (T2) (residue 105, 105AspH/105AspN): 102.407 | Time Constant (T2) (residue 106, 106AlaH/106AlaN): 137.978 | Time Constant (T2) (residue 107, 107AspH/107AspN): 99.1634 | Time Constant (T2) (residue 108, 108TrpH/108TrpN): 105.531 | Time Constant (T2) (residue 109, 109LeuH/109LeuN): 92.4282 | Time Constant (T2) (residue 110, 110LeuH/110LeuN): 99.3469 | Time Constant (T2) (residue 111, 111ValH/111ValN): 90.5694 | Time Constant (T2) (residue 112, 112LysH/112LysN): 92.6618 | Time Constant (T2) (residue 113, 113SerH/113SerN): 88.7102 | Time Constant (T2) (residue 114, 114ThrH/114ThrN): 88.1188 | Time Constant (T2) (residue 115, 115ValH/115ValN): 99.4179 | Time Constant (T2) (residue 116, 116SerH/116SerN): 105.651 | Time Constant (T2) (residue 117, 117AsnH/117AsnN): 79.9936 | Time Constant (T2) (residue 118, 118GluH/118GluN): 87.975 | Time Constant (T2) (residue 119, 119PheH/119PheN): 95.7684 | Time Constant (T2) (residue 120, 120GlyH/120GlyN): 81.3349 | Time Constant (T2) (residue 121, 121PheH/121PheN): 97.0012 | Time Constant (T2) (residue 122, 122IleH/122IleN): 86.8543
